The values that follow come from paper PMC11189929, “Non-consecutive enzyme interactions within TCA cycle supramolecular assembly regulate carbon-nitrogen metabolism” (Nature Communications, 2024).

Data set [1] deals with T1, Escherichia coli MDH (Escherichia coli, UniProt P61889).
T1 construct: C-terminal His6 tag, pET24a, expressed in E. coli BL21(DE3)
T1 sequence (P61889 1-312): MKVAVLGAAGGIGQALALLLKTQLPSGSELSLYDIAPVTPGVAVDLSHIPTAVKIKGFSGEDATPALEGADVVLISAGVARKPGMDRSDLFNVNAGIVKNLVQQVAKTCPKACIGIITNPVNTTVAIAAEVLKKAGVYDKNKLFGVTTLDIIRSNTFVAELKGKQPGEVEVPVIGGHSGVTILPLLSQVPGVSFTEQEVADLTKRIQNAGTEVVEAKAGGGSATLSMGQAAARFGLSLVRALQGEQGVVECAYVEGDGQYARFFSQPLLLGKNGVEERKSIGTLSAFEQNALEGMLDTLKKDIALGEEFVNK
Set-up: Purified MDH activity, NADH oxidation at 340 nm with varied oxaloacetate, 150 uM NADH, pH 7.4, Michaelis-Menten fit. The note with it: substrate; read-out: KM (oxaloacetate). As for the experimental part:
(§1) Determination of MDH activity was based on spectroscopic assays (30). […] Specifically, a range of oxaloacetate (Sigma) concentrations (7.5–250 µM), 150 µM NADH (Sigma), 5 nM MDH in 0.1 M sodium phosphate buffer, pH 7.4 were used. […] The catalytic parameters, kcat and KM, were calculated by fitting the data using non-linear regression to Michaelis-Menten equation, v0 = (kcat·[E]·[S])/(KM + [S]), where v0 is initial velocity, [E] is MDH concentration, [S] is […]. Original and mutated mdh genes used in the study are summarized in Supplementary Data 1. B. subtilis mdh gene was amplified by PCR from the chromosomal DNA of B. subtilis PY79. Nucleotide sequences of orthologous mdhs were collected from the KEGG database (https://www.genome.jp/), synthesized by GENEWIZ^© and cloned into i) pHT254 B. subtilis expression vector (MoBiTec Molecular Biotechnology), and ii) pET24a E. coli expression vector (Merck-Novagen) using Gibson assembly. […] All MDH proteins were tagged with Hisx6t at the C-terminal end. Mdh genes cloned into pHT254 plasmid were transformed into B. subtilis PY79. Mdh genes cloned into pET24a plasmid were transformed into E. coli Bl21(DE3) strain.

For data set [2], the target named is T2, isocitrate dehydrogenase (ICD) from Bacillus subtilis (B. subtilis) (UniProt P39126).
T2 sequence: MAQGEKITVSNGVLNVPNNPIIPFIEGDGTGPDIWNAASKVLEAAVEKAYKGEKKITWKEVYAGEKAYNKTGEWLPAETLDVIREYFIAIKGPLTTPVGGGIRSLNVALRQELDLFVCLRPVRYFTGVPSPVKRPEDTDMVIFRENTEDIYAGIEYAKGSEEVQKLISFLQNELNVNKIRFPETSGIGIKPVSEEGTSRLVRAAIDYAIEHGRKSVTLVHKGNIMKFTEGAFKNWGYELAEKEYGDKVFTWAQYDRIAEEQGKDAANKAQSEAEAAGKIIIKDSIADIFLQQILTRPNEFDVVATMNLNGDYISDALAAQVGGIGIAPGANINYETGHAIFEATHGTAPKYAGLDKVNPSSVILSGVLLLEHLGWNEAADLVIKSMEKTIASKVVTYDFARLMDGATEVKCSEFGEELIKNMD

The target of data set [3] is T2, isocitrate dehydrogenase (ICD) from Bacillus subtilis (B. subtilis). The source holds these as a separate data set.
Substrate in data set [4]: O=C(O)CC(=O)C(=O)O
Description: purified protein. It counts as biochemical, Oceanobacillus iheyensis. The conditions noted are these: 150 uM NADH, oxaloacetate 7.5-250 uM, 5 nM MDH, 0.1 M sodium phosphate pH 7.4.

Substrate in data set [5]: O=C(O)CC(=O)C(=O)O
Description: purified protein. The class given is biochemical, Bacillus subtilis. The note with it: 150 uM NADH, oxaloacetate 7.5-250 uM, 5 nM MDH, 0.1 M sodium phosphate pH 7.4.

Substrate in data set [6]: O=C(O)CC(=O)C(=O)O
Description: purified protein, by the assay type. Set-up: Purified MDH activity, NADH oxidation at 340 nm with varied oxaloacetate, 150 uM NADH, pH 7.4, Michaelis-Menten fit. The note with it: pH 7.4. As for the experimental part: as §1

By Km is commonly meant the substrate concentration at which the rate is half of its maximum. What is called kcat is the number of substrate molecules converted per active site and unit of time at saturation. By kcat/Km is commonly meant the turnover number divided by the Michaelis constant.

For the molecule `O=C(O)CC(=O)C(=O)O` [oxaloacetate], in data set [1], the Michaelis-Menten constant (Km) came out at 39 µM.

B1: malate dehydrogenase (MDH) from Bacillus subtilis (enzyme)
chain: MGNTRKKVSVIGAGFTGATTAFLIAQKELADVVLVDIPQLENPTKGKALDMLEASPVQGFDAKITGTSNYEDTAGSDIVVITAGIARKPGMSRDDLVSTNEKIMRSVTQEIVKYSPDSIIVVLTNPVDAMTYAVYKESGFPKERVIGQSGVLDTARFRTFVAEELNLSVKDVTGFVLGGHGDDMVPLVRYSYAGGIPLETLIPKERIDAIVERTRKGGGEIVNLLGNGSAYYAPAASLTEMVEAILKDQRRVLPTIAYLEGEYGYEGIYLGVPTIVGGNGLEQIIELELTDYERAQLNKSVESVKNVMKVLS
As to B1, the rate of 2-oxoglutarate formation by ICD within BSA/PEG LLPS droplets, MDH/ICD molar ratios 1:1, 10:1, 50:1, 100:1, 250:1 and 500:1 (~10% enhancement at 10:1; plateau at and above 250:1) in data set [2] stood at 180%. Besides, the partitioning of 2-oxoglutarate towards the droplet phase against the continuous phase, droplets with 1:500 molar excess of MDH, after 40 min of incubation in data set [3] worked out at 2 fold.

B2: O. iheyensis MDH (OceMDH) (Oceanobacillus iheyensis HTE831) (protein)
chain: MGLKRKKISVIGSGFTGATTALMVAQKELGDVVLVDIPDMEDPTKGKALDMAEAAPVQGFDAKITGTSNYADTEGSDLVIITAGIARKPGMSRDDLVNTNANIMKSVTKEIVHYSPNTTIVVLTNPVDAMTYTVFKESGLPKERVIGQSGILDTARFRTFVAEELNLSVKDVTGFVLGGHGDDMVPLIRYSYAGGIPLEKLIPQERLDAIVQRTRTGGGEIVNLLGNGSAYYAPAASLTVMAEAILKDQRRVLPTIAYLEGEYGYQDIYLGVPTILGGEGIEEIIELDLTKEEKAQLDKSADSVKNVLNVLQ
notes: 34,592 Da printed
In the case of B2, in data set [4], the Michaelis constant (Km) stood at 23 µM and the kcat came to 249 s⁻¹.

B3: B. subtilis MDH (BsMDH) (Bacillus subtilis subsp. subtilis str. 168) (protein)
chain: GNTRKKVSVIGAGFTGATTAFLIAQKELADVVLVDIPQLENPTKGKALDMLEASPVQGFDAKITGTSNYEDTAGSDIVVITAGIARKPGMSRDDLVSTNEKIMRSVTQEIVKYSPDSIIVVLTNPVDAMTYAVYKESGFPKERVIGQSGVLDTARFRTFVAEELNLSVKDVTGFVLGGHGDDMVPLVRYSYAGGIPLETLIPKERIDAIVERTRKGGGEIVNLLGNGSAYYAPAASLTEMVEAILKDQRRVLPTIAYLEGEYGYEGIYLGVPTIVGGNGLEQIIELELTDYERAQLNKSVESVKNVMKVLS
notes: full-length, C-terminal His6 tag, pET24a, expressed in E. coli BL21(DE3), Ni-NTA and SEC; 33,643 Da printed
For the molecule B3, in data set [5], the Michaelis constant (Km) turned out to be 12 µM and the catalytic constant (kcat) was found to be 120 s⁻¹.

B4: Geobacillus kaustophilus MDH (Geobacillus kaustophilus HTA426) (protein)
chain: MAMKRKKISVIGAGFTGATTAFLLAQKELGDVVLVDIPQLENPTKGKALDMLEASPVLGFDANIIGTSDYADTADSDIVVITAGIARKPGMSRDDLVTTNQKIMKQVTKEVVKYSPNCYIIVLTNPVDAMTYTVFQESGFPKNRVIGQSGVLDTARFRTFVAEELNISVKDVTGFVLGGHGDDMVPLVRYSYAGGIPLEKLIPKDRLDAIVERTRKGGGEIVNLLGNGSAYYAPAASLVEMVEAILKDQRRILPAIAYLEGEYGYEGIYLGVPTILGGNGIEKVIELELTEEEKAALAKSVESVKNVMRMLE
notes: C-terminal His6 tag, pET24a, expressed in E. coli BL21(DE3)
Regarding B4, in data set [6], the Km is 54 µM, the kcat is 59 s⁻¹ and the specificity constant (kcat/Km) is 1.1e+06 M⁻¹ s⁻¹.
